From patent publication US20220018856A1
Values belong to the substance of their own block, whether it stands above or below them.

Experiments:
[1] = target: phosphorylated tau peptide antigen in which threonine at position 181 in tau protein had been phosphorylated; experiment: sandwich CLEIA (Lumipulse G), capture on AT270 magnetic particles, ALP-SA label; antigen 40 pg/mL
[2] = target: phosphorylated tau peptide antigen in which threonine at position 181 in tau protein had been phosphorylated; experiment: sandwich CLEIA (Lumipulse G), capture on AT270 magnetic particles, ALP-SA label; antigen 0 pg/mL (blank)
[3] = target: phosphorylated tau peptide antigen in which threonine at position 181 in tau protein had been phosphorylated; experiment: sandwich CLEIA, AT270 capture; S/N (40/0 pg/mL) against the mixture of ALP-labeled single antibodies
[4] = target: phosphorylated tau peptide antigen in which threonine at position 181 in tau protein had been phosphorylated; experiment: sandwich CLEIA (Lumipulse G), capture on AT270 magnetic particles, ALP-SA label; antigen 100 pg/mL
[5] = target: phosphorylated tau peptide antigen in which threonine at position 181 in tau protein had been phosphorylated; experiment: sandwich CLEIA (Lumipulse G), capture on AT270 magnetic particles, ALP-SA label; antigen 400 pg/mL
[6] = target: phosphorylated tau peptide antigen in which threonine at position 181 in tau protein had been phosphorylated; experiment: sandwich CLEIA (Lumipulse G), capture on AT270 magnetic particles, ALP-SA label; antigen 200 pg/mL
[7] = target: phosphorylated tau peptide antigen in which threonine at position 181 in tau protein had been phosphorylated; experiment: sandwich CLEIA, AT270 capture; count at 40 pg/mL over count at 0 pg/mL
[8] = target: tau protein in samples obtained by diluting a cerebrospinal fluid specimen with buffer (UniProt P10636); experiment: sandwich CLEIA, AT120 capture, SA-ALP detection; diluted cerebrospinal fluid sample LoQ 4, mean of n=10
[9] = target: tau protein in samples obtained by diluting a cerebrospinal fluid specimen with buffer (UniProt P10636); experiment: sandwich CLEIA, AT120 capture, SA-ALP detection; diluted cerebrospinal fluid sample LoQ 2, mean of n=10
[10] = target: tau protein of the calibrator reagent for measuring total tau protein (LUMIPULSE G Total Tau Calibrators set, Fujirebio) (UniProt P10636); experiment: sandwich CLEIA, capture on AT120 magnetic particles, SA-ALP detection; calibrator 2250 pg/mL
[11] = target: tau protein in samples obtained by diluting a cerebrospinal fluid specimen with buffer (UniProt P10636); experiment: sandwich CLEIA, AT120 capture, SA-ALP detection; diluted cerebrospinal fluid sample LoQ 3, mean of n=10
[12] = target: tau protein of the calibrator reagent for measuring total tau protein (LUMIPULSE G Total Tau Calibrators set, Fujirebio) (UniProt P10636); experiment: sandwich CLEIA, capture on AT120 magnetic particles, SA-ALP detection; calibrator 150 pg/mL
[13] = target: tau protein of the calibrator reagent for measuring total tau protein (LUMIPULSE G Total Tau Calibrators set, Fujirebio) (UniProt P10636); experiment: sandwich CLEIA, capture on AT120 magnetic particles, SA-ALP detection; calibrator 420 pg/mL
[14] = target: tau protein of the calibrator reagent for measuring total tau protein (LUMIPULSE G Total Tau Calibrators set, Fujirebio) (UniProt P10636); experiment: sandwich CLEIA, capture on AT120 magnetic particles, SA-ALP detection; calibrator 0 pg/mL (blank)
[15] = target: tau protein in samples obtained by diluting a cerebrospinal fluid specimen with buffer (UniProt P10636); experiment: sandwich CLEIA, AT120 capture, SA-ALP detection; diluted cerebrospinal fluid sample LoB, mean of n=10
[16] = target: tau protein in samples obtained by diluting a cerebrospinal fluid specimen with buffer (UniProt P10636); experiment: sandwich CLEIA, AT120 capture, SA-ALP detection; diluted cerebrospinal fluid sample LoQ 5, mean of n=10
[17] = target: tau protein of the calibrator reagent for measuring total tau protein (LUMIPULSE G Total Tau Calibrators set, Fujirebio) (UniProt P10636); experiment: sandwich CLEIA, capture on AT120 magnetic particles, SA-ALP detection; calibrator 900 pg/mL
[18] = target: tau protein in samples obtained by diluting a cerebrospinal fluid specimen with buffer (UniProt P10636); experiment: sandwich CLEIA, AT120 capture, SA-ALP detection; diluted cerebrospinal fluid sample LoQ 1, mean of n=10
[19] = target: tau protein of the calibrator reagent for measuring total tau protein (LUMIPULSE G Total Tau Calibrators set, Fujirebio) (UniProt P10636); experiment: sandwich CLEIA, AT120 capture, SA-ALP detection; calculated count at 600 pg/mL over count at 0 pg/mL
[20] = target: tau protein of the calibrator reagent for measuring total tau protein (LUMIPULSE G Total Tau Calibrators set, Fujirebio) (UniProt P10636); experiment: sandwich CLEIA, capture on AT120 magnetic particles, SA-ALP detection; calibrator 60 pg/mL
[21] = target: tau protein in samples obtained by diluting a cerebrospinal fluid specimen with buffer (UniProt P10636); experiment: one-step sandwich CLEIA, AT120 capture; diluted cerebrospinal fluid sample LoQ 4, mean of n=10
[22] = target: tau protein of the calibrator reagent for measuring total tau protein (LUMIPULSE G Total Tau Calibrators set, Fujirebio) (UniProt P10636); experiment: one-step sandwich CLEIA (Lumipulse G), capture on AT120 magnetic particles; calibrator 1037 pg/mL
[23] = target: phosphorylated tau peptide antigen in which threonine at position 181 in tau protein had been phosphorylated; experiment: sandwich CLEIA (Lumipulse G), capture on AT270 magnetic particles; antigen 36 pM
[24] = target: tau protein of the calibrator reagent for measuring total tau protein (LUMIPULSE G Total Tau Calibrators set, Fujirebio) (UniProt P10636); experiment: one-step sandwich CLEIA (Lumipulse G), capture on AT120 magnetic particles; calibrator 0 pg/mL (blank)
[25] = target: phosphorylated tau peptide antigen in which threonine at position 181 in tau protein had been phosphorylated; experiment: sandwich CLEIA (Lumipulse G), capture on AT270 magnetic particles; antigen 9 pM
[26] = target: tau protein in samples obtained by diluting a cerebrospinal fluid specimen with buffer (UniProt P10636); experiment: one-step sandwich CLEIA, AT120 capture; diluted cerebrospinal fluid sample LoQ 2, mean of n=10
[27] = target: tau protein of the calibrator reagent for measuring total tau protein (LUMIPULSE G Total Tau Calibrators set, Fujirebio) (UniProt P10636); experiment: one-step sandwich CLEIA (Lumipulse G), capture on AT120 magnetic particles; calibrator 213 pg/mL
[28] = target: tau protein of the calibrator reagent for measuring total tau protein (LUMIPULSE G Total Tau Calibrators set, Fujirebio) (UniProt P10636); experiment: one-step sandwich CLEIA (Lumipulse G), capture on AT120 magnetic particles; calibrator 2639 pg/mL
[29] = target: phosphorylated tau peptide antigen in which threonine at position 181 in tau protein had been phosphorylated; experiment: sandwich CLEIA (Lumipulse G), capture on AT270 magnetic particles; antigen 72 pM
[30] = target: tau protein of the calibrator reagent for measuring total tau protein (LUMIPULSE G Total Tau Calibrators set, Fujirebio) (UniProt P10636); experiment: one-step sandwich CLEIA (Lumipulse G), capture on AT120 magnetic particles; calibrator 667 pg/mL
[31] = target: tau protein of the calibrator reagent for measuring total tau protein (LUMIPULSE G Total Tau Calibrators set, Fujirebio) (UniProt P10636); experiment: one-step sandwich CLEIA (Lumipulse G), capture on AT120 magnetic particles; calibrator 101 pg/mL
[32] = target: tau protein in samples obtained by diluting a cerebrospinal fluid specimen with buffer (UniProt P10636); experiment: one-step sandwich CLEIA, AT120 capture; diluted cerebrospinal fluid sample LoQ 1, mean of n=10
[33] = target: tau protein of the calibrator reagent for measuring total tau protein (LUMIPULSE G Total Tau Calibrators set, Fujirebio) (UniProt P10636); experiment: sandwich CLEIA, AT120 capture; S/N (600/0 pg/mL) against BT2-bio + HT7-bio with SA-ALP
[34] = target: tau protein of the calibrator reagent for measuring total tau protein (LUMIPULSE G Total Tau Calibrators set, Fujirebio) (UniProt P10636); experiment: sandwich CLEIA, AT120 capture; calculated count at 600 pg/mL over count at 0 pg/mL
[35] = target: phosphorylated tau peptide antigen in which threonine at position 181 in tau protein had been phosphorylated; experiment: sandwich CLEIA (Lumipulse G), capture on AT270 magnetic particles; antigen 150 pM
[36] = target: phosphorylated tau peptide antigen in which threonine at position 181 in tau protein had been phosphorylated; experiment: sandwich CLEIA (Lumipulse G), capture on AT270 magnetic particles; antigen 18 pM
[37] = target: tau protein in samples obtained by diluting a cerebrospinal fluid specimen with buffer (UniProt P10636); experiment: one-step sandwich CLEIA, AT120 capture; diluted cerebrospinal fluid sample LoQ 3, mean of n=10
[38] = target: phosphorylated tau peptide antigen in which threonine at position 181 in tau protein had been phosphorylated; experiment: sandwich CLEIA, AT270 capture; count at 4.5 pM over count at 0 pM
[39] = target: phosphorylated tau peptide antigen in which threonine at position 181 in tau protein had been phosphorylated; experiment: sandwich CLEIA, AT270 capture; S/N (4.5 pM/0 pM) against the ALP-labeled single antibody mixtures
[40] = target: phosphorylated tau peptide antigen in which threonine at position 181 in tau protein had been phosphorylated; experiment: sandwich CLEIA (Lumipulse G), capture on AT270 magnetic particles; antigen 4.5 pM
[41] = target: tau protein in samples obtained by diluting a cerebrospinal fluid specimen with buffer (UniProt P10636); experiment: one-step sandwich CLEIA, AT120 capture; diluted cerebrospinal fluid sample LoB, mean of n=10
[42] = target: phosphorylated tau peptide antigen in which threonine at position 181 in tau protein had been phosphorylated; experiment: sandwich CLEIA (Lumipulse G), capture on AT270 magnetic particles; antigen 0 pM (blank)
[43] = target: tau protein in samples obtained by diluting a cerebrospinal fluid specimen with buffer (UniProt P10636); experiment: one-step sandwich CLEIA, AT120 capture; diluted cerebrospinal fluid sample LoQ 5, mean of n=10

Count value [1]: 3110 count | Count value [2]: 312 count | S/N ratio against the mixed conjugate reaction solution [3]: 9 fold | Count value [4]: 7390 count | Count value [5]: 28700 count | Count value [6]: 14400 count | S/N (40/0) [7]: 10
Substance: BSA linker hybrid conjugate 1 labeled with ALP (BT2 Fab′ and HT7 Fab′ on maleimidated BSA, biotinylated, with streptavidin-conjugated alkaline phosphatase) (from UniProt P02769 25-607)

Count value [1]: 3970 count | Count value [2]: 278 count | S/N ratio against the mixed conjugate reaction solution [3]: 13 fold | Count value [4]: 10100 count | Count value [5]: 37300 count | Count value [6]: 19300 count | S/N (40/0) [7]: 14.3
Substance: BSA linker hybrid conjugate 2 labeled with ALP (BT2 Fab′ and HT7 Fab′ on biotinylated and maleimidated thiolated BSA, with streptavidin-conjugated alkaline phosphatase) (from UniProt P02769 25-607)

Count value [8]: 694 count | Count value [9]: 585 count | Count value [10]: 38100 count | Count value [11]: 641 count | Count value [12]: 817 count | Count value [13]: 2670 count | Count value [14]: 409 count | Count value [15]: 408 count | Count value [16]: 858 count | Count value [17]: 7070 count | Count value [18]: 455 count | S/N (600/0) [19]: 10 | Count value [20]: 514 count
Substance: antibody mixture of biotinylated monoclonal antibody BT2 and biotinylated monoclonal antibody HT7, detected with streptavidin-labeled ALP

Count value [21]: 1970 count | Count value [22]: 83600 count | Count value [23]: 297000 count | Count value [24]: 744 count | Count value [25]: 73800 count | Count value [26]: 1160 count | Count value [27]: 17600 count | Count value [28]: 211000 count | Count value [29]: 576000 count | Count value [30]: 50400 count | Count value [31]: 9280 count | Count value [32]: 982 count | S/N ratio against the mixture of the labeled antibodies [33]: 6 fold | S/N (600/0) [34]: 60.6 | Count value [35]: 1.35e+06 count | Count value [36]: 153000 count | Count value [37]: 1600 count | S/N (4.5/0) [38]: 71.7 | S/N ratio against the ALP-labeled Fab′ fragment mixture [39]: 6 fold | Count value [40]: 42600 count | Count value [41]: 728 count | Count value [42]: 595 count | Count value [43]: 2380 count
Substance: hybrid conjugate labeled with alkaline phosphatase (BT2 Fab′ fragment and HT7 Fab′ fragment coupled to maleimidated ALP)
